B1: Hairpin Ribozyme (parent)
chain: GUCCUCUUUCACGUGCGCGUGAAAGAGAGAAGUGAACCAGAGAAACACACGUUGUGGUAUAUUACCUGGUA

This passage reports self-cleavage results from the RNAGym collection of RNA variant scans (doi:10.7554/elife.80360).

The variants in this data set derive from B1. Description: self-cleavage, relative activity (ratio to wild type); higher = more cleavage; co-transcriptional.
With G42C A43G, the self-cleavage came to 0.177.
The figure for G27A U55C is 0.211.
As for A64G U70A, the figure is 0.597; as for C38A G57A, 0.0809; as for C3U G29C, 0.106.
As for G1U A71U, the figure is 0.167; as for U33G G40U, 0.0849; as for C18A A59U, 0.242.
Regarding U2C A22C, the self-cleavage was determined as 0.161.
As for C48U U60G, the figure is 0.125.
The figure for A24G A30C is 0.119; for U33G C46A it is 0.0768.
As for G34U G56C, the figure is 0.409; as for U5C A23C, 0.692; as for A22C A59G, 0.25.
As to C10A G56U, the self-cleavage was found to be 0.148.
As for A26U C50G, the figure is 0.148.
Consider G40A G51U, for which the self-cleavage was determined as 0.404.
Regarding G56C G68C, the self-cleavage is 0.236.
In the case of U53C U58A, the self-cleavage is 0.709.
The figure for A23C C48U is 0.202; for A61C U63A it is 0.177.
The figure for U7C A24G is 0.628; for A31G G51U it is 0.599.
As for G27A A44G, the figure is 0.0958; as for G29U A31U, 0.151.
U7A G17A: the self-cleavage was 0.865.
The figure for C6U U33G is 0.126.
As for A22U U63A, the figure is 0.155; as for A36U A71G, 0.829.
Take U5A C38A: the self-cleavage was 0.142.
As to G13C A45G, the self-cleavage came out at 0.178.
With U7C A59U, the self-cleavage stood at 0.178.
The figure for U55G A59U is 0.156; for A30U A61C it is 0.069; for U7G G42C it is 0.316.
As for U8A A47G, the figure is 0.187; as for A31U U60A, 0.0868; as for A28C C38U, 0.218.
As for C12U U60G, the figure is 0.504; as for U5G G57U, 0.163; as for U53C U62C, 0.347.
On to C16G G21U, for which the self-cleavage turned out to be 0.442.
Regarding C10G C46U, the self-cleavage stood at 0.0874.
The figure for G40C G56C is 0.122; for A49C U63A it is 0.0427; for C10G G54A it is 0.375.
As to C46U G56C, the self-cleavage turned out to be 0.204.
The figure for A39U G56U is 0.189.
The figure for G15C C18G is 0.863; for G51C U62C it is 0.239.
As for C18A U62A, the figure is 0.204.
As to G1U G17A, the self-cleavage was determined as 0.2.
As for U8A A31G, the figure is 0.448.
As for U2A A39C, the figure is 0.133; as for U14C A30C, 0.263.
The figure for C38U A47G is 0.163.
Regarding C3U G69A, the self-cleavage came out at 0.16.
As for G56A U70G, the figure is 0.254; as for U9C G27A, 0.4.
For the variant C50G G56U, the self-cleavage is 0.124.
As for G40U A44U, the figure is 0.142.
As for A11G G19C, the figure is 0.784.
The figure for U60G G69A is 0.0995; for G27A C38G it is 0.0969; for A31U U63A it is 0.0279.
With G19C U62C, the self-cleavage was determined as 0.283.
As for U52A U67C, the figure is 0.239; as for G32U G69A, 0.115.
As for U67G G68A, the figure is 0.138; as for G27A A41C, 0.602; as for A11U G56C, 0.087.
As for A49U U62G, the figure is 0.0483; as for A24G U60G, 0.661.
On to U8G U9G, for which the self-cleavage worked out at 0.82.
The figure for U8C A47G is 0.147; for A11U G15C it is 0.85; for C12A G57U it is 0.172.
As for A22G G57A, the figure is 0.17; as for G21A A36U, 0.503.
The figure for G32C U58C is 0.0937.
Consider G27C A30U, for which the self-cleavage turned out to be 0.255.
As for U8G A71G, the figure is 0.993; as for U53C G56U, 0.196; as for C48U G69U, 0.182.
U5G C46A: the self-cleavage is 0.195.
Consider G1C A44U, for which the self-cleavage turned out to be 0.295.
In the case of A35C G40U, the self-cleavage worked out at 0.149.
The figure for U14G A28G is 1.15; for C46U it is 0.149; for G17U C65U it is 0.383.
The figure for A36C A61C is 0.116; for G1A A28U it is 0.0496.
As for G21U A44G, the figure is 0.0823.
With C6G U70A, the self-cleavage turned out to be 0.399.
Turning to C10A A47G, the self-cleavage was 0.2.
For G13A U53G, the self-cleavage is 0.597.
As to C48U A61U, the self-cleavage was determined as 0.151.
As for U7A C50U, the figure is 0.364.
The figure for G17C A47C is 0.187; for C37G A49U it is 0.153.
The figure for G27A C50A is 0.104; for U7G C16U it is 0.932; for G15A G40U it is 0.111.
Consider U20A A61U, for which the self-cleavage was determined as 0.238.
As for C16U A26G, the figure is 0.959.
As for U52C U58C, the figure is 0.755; as for A36C A45C, 0.236; as for U7A G56A, 0.182.
Consider C38G C65G, for which the self-cleavage amounted to 0.0624.
As for G1U G54A, the figure is 0.0766; as for G56U U67G, 0.12; as for U20C A43U, 0.125.
As for A47G U55G, the figure is 0.139; as for A30G G57A, 0.0803.
The figure for A31G A35G is 0.662; for G32C A71C it is 0.215; for C48A A61U it is 0.163.
With A44G A45U, the self-cleavage worked out at 0.0878.
For C16A U62G, the self-cleavage worked out at 0.154.
As for G19A A59U, the figure is 0.0875; as for A43C U52G, 0.164; as for U20A G54U, 0.547.
As for A24U A44C, the figure is 0.252; as for A43G A71C, 0.458.
With A23G A49C, the self-cleavage was 0.159.
In the case of G19A C37U, the self-cleavage was determined as 0.567.
The figure for G32C C50U is 0.0935; for U55A U62A it is 0.104.
U5C G54C: the self-cleavage came to 0.169.
As for A39C U67G, the figure is 0.548; as for U14C A49G, 0.553.
Turning to C12U G40U, the self-cleavage turned out to be 0.191.
G19A A24C: the self-cleavage was 0.615.
As for G27U C46A, the figure is 0.13; as for A26G G29U, 0.0885.
Consider A71U, for which the self-cleavage was determined as 0.796.
As for C18A A24U, the figure is 0.86; as for G56U G69A, 0.114; as for U52C U70A, 1.22.
The figure for G17A G29A is 0.0893; for G17U A35U it is 0.557.
For C6G A36G, the self-cleavage is 0.768.
For the variant G19A A47U, the self-cleavage is 0.144.
As for U67C A71G, the figure is 0.132.
G1U C50G: the self-cleavage is 0.124.
The figure for A11G U52G is 0.681; for U5C U14C it is 0.557; for G42C G54C it is 0.113.
The figure for A22C U52C is 1.09; for U7G G25U it is 0.17.
As for G17A G40A, the self-cleavage stood at 0.185.
With C38A A41C, the self-cleavage is 0.183.
In the case of G13C A31G, the self-cleavage was determined as 0.515.
As for G54C G69U, the figure is 0.113.
As for U20G A24U, the figure is 0.731.
In the case of G21A A45U, the self-cleavage turned out to be 0.286.
As for U53A G69U, the figure is 0.26; as for G19A G42U, 0.331.
As for U8C G68U, the figure is 0.154; as for C16U C37U, 0.508; as for G1A G19C, 0.203.
As for A28C C37U, the figure is 0.396; as for U58A U63C, 0.307; as for U8G G17A, 0.648.
Regarding A47U C66A, the self-cleavage worked out at 0.157.
As to C6A A47U, the self-cleavage is 0.182.
